Assay results from patent US20010023062A1.

What was measured:
[1] = target: IL-5Rα/IFNaR2-2 + βc/IFNaR1 (human) (UniProt Q01344); assay: cell-based or functional assay
[2] = target: IL-5Rα/IFNaR1 + βc/IFNaR2-2 (human) (UniProt Q01344); assay: cell-based or functional assay

Substance | SEAP activity (6-16SEAP reporter, transient transfection of 2fTGH cells), 1 ng/ml IL-5, against untreated cells [1] [fold] | SEAP activity (6-16SEAP reporter, transient transfection of 2fTGH cells), 2 ng/ml IL-5, against untreated cells [1] [fold] | colonies in HAT + IL-5 (6-16 gpt selection, transfected 2fTGH cells, 1 ng/ml IL-5) [1] [colonies] | colonies in HAT + IL-5 (6-16 gpt selection, transfected 2fTGH cells, 1 ng/ml IL-5) [2] [colonies] | colonies surviving in HAT medium without added IL-5 (clone C cells transfected with pEFBOS-hIL-5syn) [1] [colonies]
IL-5 (produced in Sf9 cells using published methodologies) (from UniProt P05113 20-134) (ligand) | 5 | 6 | 13 | 3 | –
hIL-5syn (human IL-5 expressed by the cells from pEFBOS-hIL-5syn or pMET7-hIL-5syn) (from UniProt P05113 20-134) (ligand) | – | – | – | – | 6
